Measured values from the supplement of paper PMC7932537, “Quantitative profiling of protease specificity” (PLoS Computational Biology, 2021).
± gives the uncertainty stated by the source.

What was measured:
MMP-9 catalytic domain = MMP-9 catalytic domain (UniProt P14780); test: kcat/KM (M-1 s-1); higher = more efficient cleavage by the protease
Procedure: (§1)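 Catalytic efficiency (kcat/KM) of synthetic peptides carrying hexamer sequences taken from MMP-2/9 substrate phage selections. Cleavage was measured with recombinant human MMP-2 or MMP-9 catalytic domains (expressed in HEK293, APMA-activated, active-site titrated with GM6001), in triplicate, as described in the authors' ref 27.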

MMP-2 catalytic domain = MMP-2 catalytic domain (UniProt P08253); test: as above
Chain of MMP-2 catalytic domain (P08253 whole entry, looked up, the tested form may be a part): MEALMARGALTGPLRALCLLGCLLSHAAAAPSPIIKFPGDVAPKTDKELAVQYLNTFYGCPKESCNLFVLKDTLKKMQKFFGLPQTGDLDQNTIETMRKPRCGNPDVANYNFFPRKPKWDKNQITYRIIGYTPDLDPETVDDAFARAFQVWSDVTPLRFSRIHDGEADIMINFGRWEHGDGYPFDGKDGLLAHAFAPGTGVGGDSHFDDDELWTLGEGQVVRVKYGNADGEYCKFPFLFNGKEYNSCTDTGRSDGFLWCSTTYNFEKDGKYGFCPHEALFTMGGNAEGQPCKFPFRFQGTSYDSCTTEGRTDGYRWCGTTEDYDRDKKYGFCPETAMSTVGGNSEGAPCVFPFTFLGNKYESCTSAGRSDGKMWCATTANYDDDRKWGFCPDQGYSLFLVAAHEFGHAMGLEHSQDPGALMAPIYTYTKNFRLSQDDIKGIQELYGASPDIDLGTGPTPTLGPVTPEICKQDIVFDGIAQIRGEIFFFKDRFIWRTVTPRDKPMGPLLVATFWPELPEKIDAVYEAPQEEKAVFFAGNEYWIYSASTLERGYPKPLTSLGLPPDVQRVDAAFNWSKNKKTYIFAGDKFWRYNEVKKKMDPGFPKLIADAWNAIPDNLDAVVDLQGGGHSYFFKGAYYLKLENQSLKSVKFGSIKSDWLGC
Procedure: as §1

Chain of MMP-9 catalytic domain (P14780 whole entry, the tested form may be a part): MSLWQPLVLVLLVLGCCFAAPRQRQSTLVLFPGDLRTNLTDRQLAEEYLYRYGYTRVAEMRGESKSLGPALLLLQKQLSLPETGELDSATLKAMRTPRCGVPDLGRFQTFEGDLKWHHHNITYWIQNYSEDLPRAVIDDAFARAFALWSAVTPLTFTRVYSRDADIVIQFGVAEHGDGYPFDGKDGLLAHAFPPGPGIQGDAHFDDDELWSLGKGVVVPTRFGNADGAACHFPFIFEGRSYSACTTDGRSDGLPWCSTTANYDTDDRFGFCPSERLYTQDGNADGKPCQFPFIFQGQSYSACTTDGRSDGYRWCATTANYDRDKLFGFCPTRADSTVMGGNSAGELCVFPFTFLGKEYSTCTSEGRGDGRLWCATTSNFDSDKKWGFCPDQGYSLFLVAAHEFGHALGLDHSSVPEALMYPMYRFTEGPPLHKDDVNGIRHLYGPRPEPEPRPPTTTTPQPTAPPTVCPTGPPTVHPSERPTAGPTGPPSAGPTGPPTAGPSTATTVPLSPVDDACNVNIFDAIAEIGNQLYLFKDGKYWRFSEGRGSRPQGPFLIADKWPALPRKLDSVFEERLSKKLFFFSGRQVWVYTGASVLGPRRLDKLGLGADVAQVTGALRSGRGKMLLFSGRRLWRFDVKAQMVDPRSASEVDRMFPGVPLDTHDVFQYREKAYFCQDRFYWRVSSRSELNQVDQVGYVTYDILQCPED

Row | kcat/KM (MMP-9 catalytic domain) | kcat/KM (MMP-2 catalytic domain) | Substance
1 | 9130 ± 640 | 16400 ± 620 | AHNLSS
2 | 33400 ± 740 | 34400 ± 940 | APALWI
3 | 25200 ± 1700 | 15840 ± 130 | ARHYKS
4 | 9530 ± 160 | 22200 ± 940 | DGPVSF
5 | 0 | 0 | DRKPKA
6 | 37200 ± 4900 | 56400 ± 5200 | DSPQNL
7 | 55400 ± 2200 | 133000 ± 23000 | EGPAGL
8 | 18900 ± 2200 | 17700 ± 940 | EPKPLL
9 | 2680 ± 64 | 7230 ± 110 | EPVSLA
10 | 7950 ± 380 | 19700 ± 660 | ETPRPW
11 | 43200 ± 580 | 47700 ± 3300 | EVPQAL
12 | 15500 ± 1100 | 8910 ± 670 | GEPFEL
13 | 52200 ± 3000 | 48000 ± 960 | GEPRGQ
14 | 43700 ± 2600 | 69800 ± 46000 | GKPVSM
15 | 49830 ± 250 | 181000 ± 96000 | GPAGIR
16 | 17500 ± 760 | 12600 ± 210 | GPALSY
17 | 26200 ± 1600 | 39700 ± 1900 | GPARPY
18 | 3600 ± 320 | 9100 ± 920 | GPEGMK
19 | 22100 ± 340 | 16400 ± 670 | GPHGYK
20 | 34000 ± 2300 | 88300 ± 4700 | GPKGFR
21 | 71030 ± 710 | 125000 ± 5300 | GPRGLK
22 | 37800 ± 1800 | 30900 ± 11000 | GPRYLM
23 | 90600 ± 8800 | 51400 ± 4300 | GQPMNL
24 | 8720 ± 330 | 32100 ± 18000 | HPVSMV
25 | 74100 ± 8200 | 114000 ± 14000 | INPQGL

Row | kcat/KM (MMP-9 catalytic domain) | kcat/KM (MMP-2 catalytic domain) | Substance
26 | 3730 ± 120 | 45700 ± 960 | IPLASL
27 | 97100 ± 7900 | 43200 ± 4200 | IRPKHF
28 | 84500 ± 2000 | 37600 ± 1600 | KPVNMT
29 | 34600 ± 230 | 6570 ± 450 | KSPLRQ
30 | 109000 ± 7600 | 62600 ± 6300 | KSPQAM
31 | 66100 ± 4700 | 46500 ± 1900 | KSPQSY
32 | 140000 ± 4400 | 182000 ± 45000 | KSPSRL
33 | 18400 ± 730 | 15000 ± 600 | KSPVGV
34 | 45900 ± 2300 | 42400 ± 1700 | LPKPLR
35 | 46100 ± 1800 | 10000 ± 610 | LSPFGQ
36 | 73000 ± 9100 | 64800 ± 3000 | MGPLGQ
37 | 31800 ± 2600 | 39300 ± 3400 | MRPVGH
38 | 94700 ± 7900 | 188000 ± 23000 | MSPANI
39 | 21200 ± 1300 | 22600 ± 6500 | NPMPIR
40 | 20300 ± 620 | 35600 ± 560 | NPQNIR
41 | 46200 ± 2100 | 88100 ± 10000 | NRPNNL
42 | 27000 ± 2400 | 23900 ± 1000 | NVARPM
43 | 15200 ± 610 | 51800 ± 1300 | PAGVKA
44 | 49000 ± 6600 | 87800 ± 14000 | PAPNSL
45 | 7420 ± 290 | 26000 ± 290 | PAQLHV
46 | 19900 ± 590 | 33700 ± 1200 | PEGLQG
47 | 89400 ± 9500 | 104000 ± 6400 | PEPAAL
48 | 59800 ± 2100 | 154000 ± 23000 | PGPAGQ
49 | 38500 ± 1900 | 22800 ± 800 | PGPIGI
50 | 28700 ± 860 | 27000 ± 1000 | PGPIGW

Row | kcat/KM (MMP-9 catalytic domain) | kcat/KM (MMP-2 catalytic domain) | Substance
51 | 12500 ± 270 | 16300 ± 2800 | PHGLAT
52 | 54200 ± 4300 | 34600 ± 650 | PHGYKG
53 | 51700 ± 1400 | 23800 ± 1000 | PHNILS
54 | 75300 ± 11000 | 30700 ± 650 | PHPRLL
55 | 11900 ± 320 | 10300 ± 350 | PIQLQS
56 | 37300 ± 1400 | 31000 ± 590 | PKALPY
57 | 85700 ± 1400 | 48000 ± 2700 | PKGYQG
58 | 24900 ± 1200 | 10000 ± 190 | PLQLQT
59 | 33200 ± 5000 | 12300 ± 2000 | PLRQIG
60 | 36900 ± 3300 | 15300 ± 440 | PMALMD
61 | 46000 ± 1400 | 15300 ± 280 | PMDIHA
62 | 40400 ± 1100 | 37400 ± 1300 | PQGLAG
63 | 48400 ± 2200 | 53800 ± 2400 | PQPEGL
64 | 55200 ± 2700 | 32300 ± 2800 | PQPLDL
65 | 45500 ± 5000 | 51200 ± 2200 | PQPSEL
66 | 896 ± 900 | 1390 ± 1400 | PRGFSH
67 | 62100 ± 850 | 58000 ± 1400 | PRGVKG
68 | 23900 ± 850 | 9900 ± 730 | PRPFHH
69 | 17000 ± 880 | 13400 ± 1100 | PRPQAA
70 | 50100 ± 8300 | 92000 ± 14000 | PSNMEG
71 | 18600 ± 1600 | 70600 ± 3700 | PSPADI
72 | 69100 ± 1900 | 35900 ± 2400 | PTPKAL
73 | 12400 ± 760 | 7030 ± 260 | PVAIPM
74 | 64000 ± 7200 | 60400 ± 1200 | PVGMKG
75 | 9420 ± 660 | 15700 ± 290 | PVNMTD

Row | kcat/KM (MMP-9 catalytic domain) | kcat/KM (MMP-2 catalytic domain) | Substance
76 | 26000 ± 1200 | 5850 ± 600 | PYEWHS
77 | 51400 ± 2200 | 54400 ± 2400 | PYGIKG
78 | 72300 ± 1400 | 92100 ± 1800 | QGPAAI
79 | 45100 ± 1200 | 28400 ± 1100 | QPLEIR
80 | 18700 ± 350 | 15400 ± 1400 | QPPLPL
81 | 70100 ± 2900 | 46800 ± 2300 | QQPQAL
82 | 94300 ± 1600 | 259000 ± 29000 | QQPSRL
83 | 61100 ± 2800 | 31000 ± 750 | QSPINL
84 | 9020 ± 390 | 25300 ± 650 | RMMREL
85 | 16500 ± 1300 | 21300 ± 500 | RPEDLR
86 | 38200 ± 2100 | 25000 ± 850 | RRPRPL
87 | 11600 ± 400 | 12900 ± 340 | SAAQPL
88 | 22400 ± 340 | 15100 ± 430 | SIPLPL
89 | 11400 ± 440 | 18400 ± 250 | SPMAFS
90 | 64400 ± 1800 | 79700 ± 8500 | SPPAAI
91 | 16400 ± 740 | 98800 ± 35000 | SRPAEF
92 | 45100 ± 8000 | 141600 ± 1200 | TAPSSQ
93 | 21100 ± 1300 | 107000 ± 13000 | TPAAMT
94 | 106000 ± 4800 | 54700 ± 1400 | TQPKAM
95 | 41000 ± 7100 | 115000 ± 20000 | TTPSPI
96 | 48900 ± 1900 | 18000 ± 700 | VEPLKF
97 | 33900 ± 3000 | 34300 ± 940 | VHPSAV
98 | 16200 ± 1600 | 27700 ± 1800 | VPQEWR
99 | 7040 ± 190 | 24900 ± 1200 | VSALSS
100 | 11600 ± 180 | 36800 ± 970 | WPSPFR
